Here are results for 40 sequences from the nanobody polyreactivity screen of Harvey et al. (2022).

The nature of the data set: yeast display, Sf9 membrane polyspecificity reagent, FACS + sequencing; frameworks hold sequencing errors. The method in brief: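 Using colony PCR, genes from sorted yeast display clones were amplified, then sequenced on MiSeq at 2 × 250 and filtered by CDR length. The clones had been stained with 10% biotinylated, detergent-solubilized Sf9 membrane reagent for 1 hour at 4 °C and sorted by FACS into low and high (top ~1%) gates on anti-HA and streptavidin fluorescence. Polyreactivity labels come from the gate of origin.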
Consider “QVQLVESGGGLVQAGGSLRLSCAASGRIFQPYAMGWYRQAPGKERELVAAITRSGGSTYYADSVKGRFTISRDNAMNTVDLQLNSLKPEDTAVSYCASKVLYPYEYWGQGTQVTVSS”, for which the “polyreactivity (PSR sort gate)” value was “low polyreactivity”.

On to “QVQLVESGGGLVQAGGSLRLSCAASGRIFQRYVMGWYRQAPGKERELVASISWRGGSTYYADSVKGRFTISRDNAKNTVYLQMNSLKPEDTAVYYCAARRYTDYVRVAREMDYWGQGTQVSVSS”, for which the “polyreactivity (PSR sort gate)” value is given as “high polyreactivity”.

On to “QVQLVESGGGLVQAGGSLRLSCAASGRIFQTYAMGWYRQAPGKERELVAAISSRGRTYYADSVKGRFTISRDNAKNTVYLQMNSLKPGDTAVYYCAARDWSHRPRGYDYWGQGTKVTVSS”, for which the “polyreactivity (PSR sort gate)” value is “high polyreactivity”.

In the case of “QVQLVESGGGLVQAGGSLRLSCAASGRIFQTYAMGWYRQAPGNERELVARIRLSGGSTYYADSVKGRFTISRDNAKNTVYLQMNRLKPEATAVYYCAALYSRARFTDPYYYWGQGTQVTVSS”, the “polyreactivity (PSR sort gate)” value is recorded as “high polyreactivity”.

For the sequence “QVQLVESGGGLVQAGGSLRLSCAASGRIFQVNDKGFYIQAPGKETELVASITYSGGSTYYADSVKGRFTISRDNAKITVYLQMNSLKPEDTAVYYCNKQNYVWVLVIYYYWGQGTQVTVSS”, the “polyreactivity (PSR sort gate)” value is given as “low polyreactivity”.

Take “QVQLVESGGGLVQAGGSLRLSCAASGRIFQWYAMGWYRQAPGKERELVATISDGDSTNYADSVKGRFTISRDNAKNTVYFQMNSLKPEDTAVYYCAALDIYYDSYYWYDYWGQGTQVTVSS”: the “polyreactivity (PSR sort gate)” value was “high polyreactivity”.

Regarding “QVQLVESGGGLVQAGGSLRLSCAASGRIFQYNAMGWYRQAPGKERELVAAITGGGSTYYADSVKGRFTISRDNAKNTVYLQMNSLKPEDTAVYYCNKAWSCSWLLTYGYWGQGTQVTVSS”, the “polyreactivity (PSR sort gate)” value is given as “high polyreactivity”.

On to “QVQLVESGGGLVQAGGSLRLSCAASGRIFQYNAMGWYRQAPGKESELVAAIRRGGGSTYYADSVKGRFTISRDNAKNTVYLQMNSLKPEDTAVYYCAARRKRVSFYPEYDYWGQGTQVTVSS”, for which the “polyreactivity (PSR sort gate)” value was “low polyreactivity”.

Consider “QVQLVESGGGLVQAGGSLRLSCAASGRIFQYYAMGWYRQAPGKERELVAAISRGGSTNYADSVKGRFTISRDNAKNTVYCQMNSLIPVDTAVYYCAGDEYRYYFFRPGIGYDYWGQGTQVTVSS”, for which the “polyreactivity (PSR sort gate)” value is given as “low polyreactivity”.

Take “QVQLVESGGGLVQAGGSLRLSCAASGRIFQYYVMGWYRQAPGKERELVAAITSGGGTKYADSVKGRFTISRDNAKNTVYLQMNSLKPEDTAVYYCAAAWFDQYSRYDYWGQGTQVTVSS”: the “polyreactivity (PSR sort gate)” value is recorded as “low polyreactivity”.

On to “QVQLVESGGGLVQAGGSLRLSCAASGRIFRANTMGWYRQAPGKERELVATSSKNGGRTYYADSVKGRFTISRDNAKNTVYLQMNSLKPEDTAVYYCNAEWRGWRFLEYGSYIYQSGYWGQGTQVTVSS”, for which the “polyreactivity (PSR sort gate)” value was “high polyreactivity”.

As for “QVQLVESGGGLVQAGGSLRLSCAASGRIFRAYAMGWYRQAPGKERELVAAITSGVSTNYADSVKGRFTISRDNAKNTVYLQMNSLKAEDTAVYYCAADIYVIYEYWGQGTQVTVSS”, the “polyreactivity (PSR sort gate)” value was “low polyreactivity”.

For “QVQLVESGGGLVQAGGSLRLSCAASGRIFRDNAMGWYRQAPGKERELVAAITSSGGSTNYADSVKGRFTISRDNAKNTVYLQMNSLKPEDTAVYYCNTDRLGAARYDYWGQGTQVTVSS”, the “polyreactivity (PSR sort gate)” value is reported as “low polyreactivity”.

In the case of “QVQLVESGGGLVQAGGSLRLSCAASGRIFRDYAMGWYRQAPGKERELVAAIRSVGNTNYADSVKGRFTISRDNAKNTVYLQMNSLKPEDTAVYYCNRQGSYFSRQAIGDFRFDYWGQGTQVTVSS”, the “polyreactivity (PSR sort gate)” value is reported as “low polyreactivity”.

“QVQLVESGGGLVQAGGSLRLSCAASGRIFRDYAMGWYRQAPVKERELVAAITRSGDTTYYADSVKGRFTISRDNAKNTVYLQMNSLKPEDTAVYYCAARYVSRYYVYRGFEYWGQGTQVTVSS”: the “polyreactivity (PSR sort gate)” value is reported as “high polyreactivity”.

For the sequence “QVQLVESGGGLVQAGGSLRLSCAASGRIFRFYAMGWSRQAPGKEREMVAVISTGGRTNYADSVKGRFTISRDNGKNTVYLQMNSLKPVDSAVYYCAAEYTNIGRYDGWNYNYWGQGTQVTVSS”, the “polyreactivity (PSR sort gate)” value is recorded as “high polyreactivity”.

On to “QVQLVESGGGLVQAGGSLRLSCAASGRIFRGNAMGWYRQAPGKERELVAASTSSGDSTFYADSVKGRFTISRDNAKNTVYLQMNSLKPEDTAVYYCAANVRYQRTSGYYYWGQGTQVTVSS”, for which the “polyreactivity (PSR sort gate)” value is listed as “high polyreactivity”.

For “QVQLVESGGGLVQAGGSLRLSCAASGRIFRGNAMGWYRQPPGKERELGATITRSGARTYYADSVKGRFTISRDNAKNTVYLQMNSLKPEDTAVYYCAARRVRSYAYDYWGQGTQVTVSS”, the “polyreactivity (PSR sort gate)” value is given as “high polyreactivity”.

Consider “QVQLVESGGGLVQAGGSLRLSCAASGRIFRGNTMGWYRQAPGKERELVAAITRGGSTSYADSVKGRFTISRDNAKNTVYLQMNSLKPEDTAVFYCATRTHGEGTRRDSWGQGTQVTVSS”, for which the “polyreactivity (PSR sort gate)” value is on record as “low polyreactivity”.

In the case of “QVQLVESGGGLVQAGGSLRLSCAASGRIFRGYAMGWYIQAPGKEREFVADITRSGGSTYYADSVKGRFTISRDNAKNTVYLQMNSLKPEDTAVYYCAREWYQYSPYHRFDYWGQGTQVTVSS”, the “polyreactivity (PSR sort gate)” value is on record as “high polyreactivity”.

“QVQLVESGGGLVQAGGSLRLSCAASGRIFRGYAMGWYRQAPGKERELVAAIDTDTGITYYADSVKGRFTISRDNAKNTVYLQMNSLKPEDTAVYYCAAETYYAVSTGYDFDYWGQGTQVTVSS”: the “polyreactivity (PSR sort gate)” value is listed as “high polyreactivity”.

As to “QVQLVESGGGLVQAGGSLRLSCAASGRIFRGYAMGWYRQAPGKERELVAAISRSGGSTYYADSVKGRFTISRDNAKNTVYLQMNSLKPEDTAVYYCAAVPYYVWYYYPIGGYWGQGTQVTVSS”, the “polyreactivity (PSR sort gate)” value was “high polyreactivity”.

Take “QVQLVESGGGLVQAGGSLRLSCAASGRIFRGYAMGWYRQAPGKERELVADISSGASTNYADSVKGRFTISRDNAKNTVYLQMNSLKPEDTAVYYCAAQHSVLAYFEYDYWGQGTQVTVSS”: the “polyreactivity (PSR sort gate)” value was “low polyreactivity”.

Regarding “QVQLVESGGGLVQAGGSLRLSCAASGRIFRGYAMGWYRQAPGKERELVATITARGGNTYYADSVKGRFTISRDNAKNTVYLQMNSLKPEETAVYYCAATFYRRYVDLGYWGQGTQVTVSS”, the “polyreactivity (PSR sort gate)” value was “high polyreactivity”.

In the case of “QVQLVESGGGLVQAGGSLRLSCAASGRIFRGYTMGWYRQAPGKEREFVAAITANGGRTYYADSVKGRFTISRDTAKNTVYLKMNRLKPEDTAVYYCNARTYTYRGSFDYWVQGTQVTVSS”, the “polyreactivity (PSR sort gate)” value is “high polyreactivity”.

Consider “QVQLVESGGGLVQAGGSLRLSCAASGRIFRHNTMGWYRQAPGKERELDAGITASGGDTYYADSVKGRFTISRDNAKNTVYLQMNSLKPEDTAVYYCAKRGQSYTYRRYDYWGQGTQVTVSS”, for which the “polyreactivity (PSR sort gate)” value is “low polyreactivity”.

On to “QVQLVESGGGLVQAGGSLRLSCAASGRIFRINAMGWYRQAPGKERELVASITSRAGSTYYADSVKGRFTISRDNAKNTVYLQMNSLKPEDTAVYYCAAASRRGYYYWGQGTQVTVSS”, for which the “polyreactivity (PSR sort gate)” value is listed as “high polyreactivity”.

As for “QVQLVESGGGLVQAGGSLRLSCAASGRIFRINDMGWYIQAPGKERELVAAITWSGGSTYYADSVKGRFTISRDNAKNPVYLPMNSLKPEDTAGYYCAADQAYFWGYYYWGQGTQVTVSS”, the “polyreactivity (PSR sort gate)” value is on record as “low polyreactivity”.

As for “QVQLVESGGGLVQAGGSLRLSCAASGRIFRKYAMGWYRQAPGKERELVAAINWSGGSTYYADSVKGRFTISRDNAKNTVYLQMNSLKPEDTAVYYCAAYVRRVGYYYWGQGTQVTVSS”, the “polyreactivity (PSR sort gate)” value is “high polyreactivity”.

Regarding “QVQLVESGGGLVQAGGSLRLSCAASGRIFRKYTMGWYRQAPGKERELVAAITGTGGSTYYADSVKGRFTISRDNAKNTVYLQMNSLKPEDTAVYYCAAVARFRYSDMYYWGQGTQVTVSS”, the “polyreactivity (PSR sort gate)” value is recorded as “high polyreactivity”.

For “QVQLVESGGGLVQAGGSLRLSCAASGRIFRLYAMGWYRQAPGKERELVASISKSGGSTYYADSVKGRFTISRDNAKNTVYLQMNSLKPADSAVYYCAADYRTHGGYEGTFDYWGQGTQVTVSS”, the “polyreactivity (PSR sort gate)” value is “low polyreactivity”.

“QVQLVESGGGLVQAGGSLRLSCAASGRIFRNNAMGGDRQAPGKERELVASITSSGGSTYYADSVKGRFTISRDNAKNTVYLQMNSLKPEDTAVYYCAAYTRSGYGYKLYYYWGQGTQVNVSS”: the “polyreactivity (PSR sort gate)” value is “high polyreactivity”.

Turning to “QVQLVESGGGLVQAGGSLRLSCAASGRIFRNYAMGWYRQAPGKERELVPAITRGGSTYYAVSVKGRFSISRDNAKNTVYLQMNSLKPEDNAVYYCNKAWPYSHPVQYHRSRSYDYWGQGTQVTVSS”, the “polyreactivity (PSR sort gate)” value was “high polyreactivity”.

Consider “QVQLVESGGGLVQAGGSLRLSCAASGRIFRPNTMGWYRQAPGKERELVAAISRSGGSTYYADSVKGRFTISRDNAKNTVYLQMNSLKPEDTAVDYCAKRYGGIVGVGANKYEYWGQGTQVTVAS”, for which the “polyreactivity (PSR sort gate)” value is “high polyreactivity”.

Take “QVQLVESGGGLVQAGGSLRLSCAASGRIFRPNTMGWYRQAPGKERELVASISLSAGSTYYADSVKGRFTISRDNAKNTVFLQMNSLKPEDTAVYYCNATYLSWYRYKYNYWGQGTQVTVSS”: the “polyreactivity (PSR sort gate)” value was “low polyreactivity”.

For “QVQLVESGGGLVQAGGSLRLSCAASGRIFRPYAMGWYRQAPGKERELVAAITRGGSTKYADSVKGRFTISRDNAKNTVYLQMNSLKPEDTAVYYCAARGWSTGTSYRSAWWDYYYWGQGTQVTVSS”, the “polyreactivity (PSR sort gate)” value was “high polyreactivity”.

Turning to “QVQLVESGGGLVQAGGSLRLSCAASGRIFRQNAMGWYRQAPGKERELVAAISRGGGSTYYADSVKGRFTISRDNAKNTVYLQMNSLKPDDTAVYYCAAFQAHQTAFDYWGQGTQVTVSS”, the “polyreactivity (PSR sort gate)” value is “high polyreactivity”.

For the sequence “QVQLVESGGGLVQAGGSLRLSCAASGRIFRRNTMGWYRQAPGKEREVVAAITSSGGSTYADSVKGRFTISRDNAKNTVYLQMNSLKPEDTAVYYCATYVAYHRGYRTYDHWGQGTQVTVSS”, the “polyreactivity (PSR sort gate)” value was “low polyreactivity”.

On to “QVQLVESGGGLVQAGGSLRLSCAASGRIFRRYALGLYRQAPGKEREFVAAISYGGGSTYYADSVKGRFTISRDNAKNTVYLQMNRLKPEDTAVYFCNADVPKSLLLYYPWGYGYWGQGTQVTVSS”, for which the “polyreactivity (PSR sort gate)” value is given as “low polyreactivity”.

On to “QVQLVESGGGLVQAGGSLRLSCAASGRIFRRYAMGWNRQAPGKEMELVAAISRSGGSTYYADSVKGRFTISRDNAKNTVYLQMNSLKPEDTAVYYCNRRYITYNYDYWGQGTQVTVSS”, for which the “polyreactivity (PSR sort gate)” value was “high polyreactivity”.
